Results as given in PMC10515612, “Analytical Ultracentrifugation-Calibrated Anion-Exchange Chromatography for Sensitive and Intact Determination of Osteopontin in Infant Formula and Dairy Products” (Journal of Agricultural and Food Chemistry, 2023).
“And” between values parts separate entries of the source, which are not always exact repeats. Equal values may be shown once.

Target: the molecule itself
Experiment: AUC; sedimentation velocity, interference optics, OPN 1 mg/mL, 20 °C, 50,000 rpm; buffer changed from 20 mM THAM (10 mM NaCl, pH 8.00) to 20 mM PBS

B1: Osteopontin (bovine milk osteopontin, in-house reference standard) (natural protein)
chain: not shown
modifications: phosphorylations (~1.7 kDa) and O-linked glycosylations (2.9 kDa) on the full-length form; sites not given
notes: Osteopontin, bovine, from milk; By MALDI-TOF the material also holds an N-terminal fragment (150 amino acids, ~19.8 kDa); The sample is a mixture of full-length OPN and an N-terminal fragment of about 150 residues; also called OPN; bovine OPN; source: high-purity OPN protein ingredient extracted and provided by Arla Foods Ingredients (Denmark)
stoichiometry N: 4 and 8
